Data on three molecules can be found in patent US20160310583A1 (SUMITOMO DAINIPPON PHARMA, published 2016).

To fix the notation:
B1: FAM83B-derived peptide F593_10 (peptide)
peptide: KPLPESIPKL
B2: FAM83B-derived peptide F245_11 (peptide)
peptide: SYMWSFEKAHL
B3: FAM83B-derived peptide F475_10 (peptide)
peptide: RFLQQRMPTL

The first assay addresses T1, HLA-A*24:02 (human).
T1 construct: whole, on cells; MHC class I molecule, empty until peptide is added; detected with FITC anti-HLA-A24 antibody 17A10
Description: MHC class I stabilization on T2-A24 cells, flow cytometry, 100 ug/mL peptide. In general terms: In flow cytometry, cells or beads pass a laser one at a time.
For the molecule B1, the “MFI (solvent ratio)” value is ≥ 1.5 ratio to solvent.
Consider B2, for which the “MFI (solvent ratio)” value is ≥ 1.5 ratio to solvent.
Same read-out and setting: the same measure for B3: ≥ 1.5 ratio to solvent.

The next assay concerns the target T2, HLA-A*02:01 (human).
T2 construct: whole, on cells; MHC class I molecule, empty until peptide is added; detected with FITC anti-HLA-A02 antibody BB7.2
Described as above.
On to B1, for which the “MFI (solvent ratio)” value is ≥ 1.5 ratio to solvent.
Still for that read-out and setting: the figure for B2 is ≥ 1.5 ratio to solvent.
In the case of B3, the “MFI (solvent ratio)” value is ≥ 1.5 ratio to solvent.

A further assay concerns the target T1, HLA-A*24:02. The assay is described as above. The source holds these as a separate data set.
For the molecule B1, the “MFI (solvent ratio)” value was 3.5 ratio to solvent.
Still for that read-out and setting: the figure for B2 is 2.9 ratio to solvent; for B3 it is 3 ratio to solvent.

In the next assay the target is T2, HLA-A*02:01. The assay is described as above. This is another data set of the same source.
In the case of B1, the “MFI (solvent ratio)” value is 1.9 ratio to solvent.
The same measure, in the same setting: the same measure for B2: 1.5 ratio to solvent; for B3: 1.9 ratio to solvent.
